We go through two substances from IntAct's records for PubMed 24290140.

The target of this assay is Fhl1, P97447-2.
Fhl1, P97447-2, sequence (P97447 other isoform, or with tags, fused parts or gaps): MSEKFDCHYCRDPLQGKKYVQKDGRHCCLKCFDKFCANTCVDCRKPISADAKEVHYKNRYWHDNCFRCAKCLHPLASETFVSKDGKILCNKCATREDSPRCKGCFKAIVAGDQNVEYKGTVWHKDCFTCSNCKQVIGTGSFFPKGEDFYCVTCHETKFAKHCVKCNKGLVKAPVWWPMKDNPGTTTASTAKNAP

Recombining binding protein suppressor of hairless (Mus musculus), P31266 A284R, sequence (P31266 whole entry A284R): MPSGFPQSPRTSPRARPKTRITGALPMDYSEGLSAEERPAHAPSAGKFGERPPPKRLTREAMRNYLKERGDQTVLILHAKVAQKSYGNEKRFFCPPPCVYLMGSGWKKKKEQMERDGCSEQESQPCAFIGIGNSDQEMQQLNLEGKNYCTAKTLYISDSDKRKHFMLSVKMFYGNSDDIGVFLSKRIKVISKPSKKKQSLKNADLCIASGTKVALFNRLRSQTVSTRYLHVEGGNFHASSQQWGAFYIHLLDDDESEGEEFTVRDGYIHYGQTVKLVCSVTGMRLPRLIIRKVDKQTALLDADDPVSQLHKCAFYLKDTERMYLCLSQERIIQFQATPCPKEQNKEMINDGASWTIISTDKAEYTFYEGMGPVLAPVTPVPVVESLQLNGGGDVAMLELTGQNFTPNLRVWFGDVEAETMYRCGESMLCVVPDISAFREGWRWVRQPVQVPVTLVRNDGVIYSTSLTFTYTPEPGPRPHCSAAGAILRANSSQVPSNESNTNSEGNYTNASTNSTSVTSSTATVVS
Recombining binding protein suppressor of hairless (Mus musculus), P31266 F261R, sequence (P31266 whole entry F261R): as the sequence (P31266 whole entry A284R) above, with F261R, R284A counted along it

On to “Recombining binding protein suppressor of hairless (Mus musculus), P31266 A284R”, for which the “effect of a mutation on the interaction” value was “decreasing interaction strength”. Under “Recombining binding protein suppressor of hairless (Mus musculus), P31266 F261R” stands “decreasing interaction strength”.
